The assay deals with T4Lnano fusion protein (CBP - ER/K motif - T4L - linker - CaM). The assay can be described thus: crystal structure.

What is called stoichiometry N is the number of molecules, sites or subunits per partner or assembly.

Substance “T4Lnano fusion protein (CBP - ER/K motif - T4L - linker - CaM)” registered a stoichiometry N of 2.

Values taken from publication doi:10.1101/2020.09.29.318410.
